In US20200270588A1, “GLUCOSYL TRANSFERASE POLYPEPTIDES AND METHODS OF USE” (Syngenta Participations AG, priority 2017, published 2020):

Assays:
[1] = UDP luminescence plate assay of E. coli extracts, saturation mutants of SEQ ID NO: 1, herbicide V; assay type: biochemical, Zea mays; conditions: improvement factor relative to w/t bx9 = 1.0, rounded to nearest 0.5; extract activity basis; compound V
[2] = UDP luminescence plate assay of E. coli extracts, mutants of SEQ ID No: 1, 2 mM metribuzin; assay type: biochemical, Zea mays; conditions: for SIGNAL: metribuzin signal of mutant divided by the signal of w/t bx9: relative to bx9 w/t; for luminescence signal in the DMSO control: mutants of SEQ ID No: 1, DMSO in place of metribuzin (background UDP-glucose hydrolysis); for luminescence signal observed with 2 mM metribuzin: mutants of SEQ ID No: 1 in E. coli extracts, UDP luminescence; for RATIO of the metribuzin signal to the DMSO signal: 2 mM metribuzin vs DMSO control, same mutant
In short: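 Extracts of E. coli BL21 DE3 expressing C-terminally His-tagged SEQ ID NO:1 variants incubated with 2 mM metribuzin; UDP formed read by UDP-Glo luminescence against a UDP standard curve, with optional 95 C stop. Mutants ranked by metribuzin/DMSO signal ratio and signal increase over wild-type bx9.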

Molecule	Preferred amino acid substitutions and (IF) based on RLU/min/ul [1]	SIGNAL: metribuzin signal of mutant divided by metribuzin signal of w/t bx9 ([2]; 2 mM metribuzin)	luminescence signal with metribuzin ([2]; 2 mM metribuzin, H24A null background 1.00E+05 not subtracted)	SIGNAL: metribuzin signal of mutant divided by the signal of w/t bx9 ([2]; 2 mM metribuzin)	luminescence signal in the DMSO control [2]	luminescence signal observed with 2 mM metribuzin ([2]; 2 mM metribuzin)	RATIO of the metribuzin signal to the DMSO signal [2]
F19M: bx9 SEQ ID NO:1 mutant (protein, Zea mays) MASSRTGAGAGGRVVVFPMPFQGHFNPVMRLARALHARGLAITVFHSGALDPADYPADYRFVPVTVEADPKLLASEDIAAIVTTLNASCDAPFRARLSALLAAEGRDSVRCVFTDVSWNAVLTASSDLGVPALGMMTASAASLRDYMAYRTLIDKGYLPVKEERKEDPVPELPPYLVKDLLRVDTSDLEEFAELLARTVTAARRASGLIFNTFPLIETDTLAEIHKALSVPVFAVAPLNKLVPTATASLHGVVQADRGCLQWLDTQQPGSVLYVSFGSMAAMDPHEFVELAWGLADSKRPFVWVVRPNLIRGFESGALPDGVEDEVRGRGIVVAWAPQEEVLAHPAVGGFLTHNGWNSTVEAISEGVPMVCCPRHGDQFGNMRYVCDVWKVGTELVGEQLERGQVKAAIDRLFGTKEGEEIKERMKEFKIAAAKGIGIGVDVDETASPRTDLTDLVDLIKSF	M(1.0)	0.86	1.07E+05	0.99	1.92E+05	2.76E+05	
A202S: bx9 SEQ ID NO:1 mutant (protein, Zea mays) MASSRTGAGAGGRVVVFPFPFQGHFNPVMRLARALHARGLAITVFHSGALDPADYPADYRFVPVTVEADPKLLASEDIAAIVTTLNASCDAPFRARLSALLAAEGRDSVRCVFTDVSWNAVLTASSDLGVPALGMMTASAASLRDYMAYRTLIDKGYLPVKEERKEDPVPELPPYLVKDLLRVDTSDLEEFAELLARTVTASRRASGLIFNTFPLIETDTLAEIHKALSVPVFAVAPLNKLVPTATASLHGVVQADRGCLQWLDTQQPGSVLYVSFGSMAAMDPHEFVELAWGLADSKRPFVWVVRPNLIRGFESGALPDGVEDEVRGRGIVVAWAPQEEVLAHPAVGGFLTHNGWNSTVEAISEGVPMVCCPRHGDQFGNMRYVCDVWKVGTELVGEQLERGQVKAAIDRLFGTKEGEEIKERMKEFKIAAAKGIGIGVDVDETASPRTDLTDLVDLIKSF	S,I,C,M(1.0)			0.91	2.70E+05	2.53E+05	0.94
A202T: bx9 SEQ ID NO:1 mutant (protein, Zea mays) MASSRTGAGAGGRVVVFPFPFQGHFNPVMRLARALHARGLAITVFHSGALDPADYPADYRFVPVTVEADPKLLASEDIAAIVTTLNASCDAPFRARLSALLAAEGRDSVRCVFTDVSWNAVLTASSDLGVPALGMMTASAASLRDYMAYRTLIDKGYLPVKEERKEDPVPELPPYLVKDLLRVDTSDLEEFAELLARTVTATRRASGLIFNTFPLIETDTLAEIHKALSVPVFAVAPLNKLVPTATASLHGVVQADRGCLQWLDTQQPGSVLYVSFGSMAAMDPHEFVELAWGLADSKRPFVWVVRPNLIRGFESGALPDGVEDEVRGRGIVVAWAPQEEVLAHPAVGGFLTHNGWNSTVEAISEGVPMVCCPRHGDQFGNMRYVCDVWKVGTELVGEQLERGQVKAAIDRLFGTKEGEEIKERMKEFKIAAAKGIGIGVDVDETASPRTDLTDLVDLIKSF	T,I,V,L,F(1.5)			0.93	2.52E+05	2.61E+05	
V199M: bx9 SEQ ID NO:1 mutant (protein, Zea mays) MASSRTGAGAGGRVVVFPFPFQGHFNPVMRLARALHARGLAITVFHSGALDPADYPADYRFVPVTVEADPKLLASEDIAAIVTTLNASCDAPFRARLSALLAAEGRDSVRCVFTDVSWNAVLTASSDLGVPALGMMTASAASLRDYMAYRTLIDKGYLPVKEERKEDPVPELPPYLVKDLLRVDTSDLEEFAELLARTMTAARRASGLIFNTFPLIETDTLAEIHKALSVPVFAVAPLNKLVPTATASLHGVVQADRGCLQWLDTQQPGSVLYVSFGSMAAMDPHEFVELAWGLADSKRPFVWVVRPNLIRGFESGALPDGVEDEVRGRGIVVAWAPQEEVLAHPAVGGFLTHNGWNSTVEAISEGVPMVCCPRHGDQFGNMRYVCDVWKVGTELVGEQLERGQVKAAIDRLFGTKEGEEIKERMKEFKIAAAKGIGIGVDVDETASPRTDLTDLVDLIKSF	M,N(1.0)			0.92	2.53E+05	2.58E+05	1.02
L143Y: bx9 SEQ ID NO:1 mutant (protein, Zea mays) MASSRTGAGAGGRVVVFPFPFQGHFNPVMRLARALHARGLAITVFHSGALDPADYPADYRFVPVTVEADPKLLASEDIAAIVTTLNASCDAPFRARLSALLAAEGRDSVRCVFTDVSWNAVLTASSDLGVPALGMMTASAASYRDYMAYRTLIDKGYLPVKEERKEDPVPELPPYLVKDLLRVDTSDLEEFAELLARTVTAARRASGLIFNTFPLIETDTLAEIHKALSVPVFAVAPLNKLVPTATASLHGVVQADRGCLQWLDTQQPGSVLYVSFGSMAAMDPHEFVELAWGLADSKRPFVWVVRPNLIRGFESGALPDGVEDEVRGRGIVVAWAPQEEVLAHPAVGGFLTHNGWNSTVEAISEGVPMVCCPRHGDQFGNMRYVCDVWKVGTELVGEQLERGQVKAAIDRLFGTKEGEEIKERMKEFKIAAAKGIGIGVDVDETASPRTDLTDLVDLIKSF	M,Y(1.0)			1.06	2.77E+05	2.98E+05	
L143M: bx9 SEQ ID NO:1 mutant (protein, Zea mays) MASSRTGAGAGGRVVVFPFPFQGHFNPVMRLARALHARGLAITVFHSGALDPADYPADYRFVPVTVEADPKLLASEDIAAIVTTLNASCDAPFRARLSALLAAEGRDSVRCVFTDVSWNAVLTASSDLGVPALGMMTASAASMRDYMAYRTLIDKGYLPVKEERKEDPVPELPPYLVKDLLRVDTSDLEEFAELLARTVTAARRASGLIFNTFPLIETDTLAEIHKALSVPVFAVAPLNKLVPTATASLHGVVQADRGCLQWLDTQQPGSVLYVSFGSMAAMDPHEFVELAWGLADSKRPFVWVVRPNLIRGFESGALPDGVEDEVRGRGIVVAWAPQEEVLAHPAVGGFLTHNGWNSTVEAISEGVPMVCCPRHGDQFGNMRYVCDVWKVGTELVGEQLERGQVKAAIDRLFGTKEGEEIKERMKEFKIAAAKGIGIGVDVDETASPRTDLTDLVDLIKSF	M,Y(1.0)			1.02	2.74E+05	2.86E+05	1.04
